Non-standard residues stand in square brackets, D forms with d. No end group written: not given here. pS = N[C@@H](COP(=O)(O)O)C(=O)O
B1: TASK-3 pS373 ΔV374 C-terminal fluorescent peptide (peptide, UniProt Q9NPC2 360-374, looked up)
peptide: SFTDHQRLMKRRK[pS]
modifications: also: fluorescein label, position not given here
notes: TASK-3 (KCNK9), human, C-terminal peptide with phosphorylated S373 but lacking the C-terminal valine V374; ends at pS373; source: synthetic peptide, bought: Peps4Life Sciences

How the values were obtained:
[1] = molecular target: T1, GST-tagged TASK-3 C-terminal 15 residues fusion protein, phosphorylated with PKA catalytic subunit (human, UniProt Q9NPC2 360-374); assay: SPR
T1 chain: {GST}-SFTDHQRLMKRRK[pS]V

[2] = molecular target: TASK-1 pS392 C-terminal fluorescent peptide (human) (UniProt O14649); assay: fluorescence polarisation; 10 nM fluorescein-labelled peptide titrated with 14-3-3 protein (1 nM to 120 µM in the results, 100 µM to 1 nM in the methods); 20 mM MOPS, 150 mM NaCl, 0.005% (v/v) CHAPS pH 7.0; room temperature; monophasic fit
[3] = molecular target: B1; assay: as above; details: both partners purified
14-3-3ε = molecular target: T2, 14-3-3ε (human, UniProt P62258 1-255); assay: FP
T2 chain: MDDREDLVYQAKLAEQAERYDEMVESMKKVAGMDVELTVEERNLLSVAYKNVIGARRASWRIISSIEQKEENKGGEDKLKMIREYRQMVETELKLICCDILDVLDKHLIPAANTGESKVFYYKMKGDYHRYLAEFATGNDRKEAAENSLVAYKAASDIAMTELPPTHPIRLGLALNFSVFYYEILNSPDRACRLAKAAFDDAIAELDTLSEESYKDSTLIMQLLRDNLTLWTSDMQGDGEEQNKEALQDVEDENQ

14-3-3σ = molecular target: T3, 14-3-3σ (human, UniProt P31947 1-248); assay: FP
T3 chain: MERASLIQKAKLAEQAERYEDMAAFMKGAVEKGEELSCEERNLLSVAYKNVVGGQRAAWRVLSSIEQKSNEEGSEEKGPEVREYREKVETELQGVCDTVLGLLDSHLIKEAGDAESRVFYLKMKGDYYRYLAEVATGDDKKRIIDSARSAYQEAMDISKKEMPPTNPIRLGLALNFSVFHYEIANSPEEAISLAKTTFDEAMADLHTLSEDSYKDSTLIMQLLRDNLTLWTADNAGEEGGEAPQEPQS

14-3-3ζ [4] = molecular target: T4, 14-3-3ζ (human, UniProt P63104 1-245); assay: FP
T4 chain: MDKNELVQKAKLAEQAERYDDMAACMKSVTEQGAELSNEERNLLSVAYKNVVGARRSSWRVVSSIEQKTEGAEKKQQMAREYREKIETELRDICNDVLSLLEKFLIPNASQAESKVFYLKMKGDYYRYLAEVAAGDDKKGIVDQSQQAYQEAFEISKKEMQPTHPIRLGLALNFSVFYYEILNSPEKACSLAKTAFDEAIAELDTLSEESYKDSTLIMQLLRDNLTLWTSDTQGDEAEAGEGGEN

14-3-3γ [5] = molecular target: T5, 14-3-3γ (human, UniProt P61981 1-247); assay: FP
T5 chain: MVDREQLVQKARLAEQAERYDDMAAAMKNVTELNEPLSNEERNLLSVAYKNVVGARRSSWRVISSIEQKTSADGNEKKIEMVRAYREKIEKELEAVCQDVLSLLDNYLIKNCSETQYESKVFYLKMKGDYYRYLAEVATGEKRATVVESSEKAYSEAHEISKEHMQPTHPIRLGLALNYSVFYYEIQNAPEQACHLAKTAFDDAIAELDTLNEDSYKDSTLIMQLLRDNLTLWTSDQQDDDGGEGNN

14-3-3η [6] = molecular target: T6, 14-3-3η (human, UniProt Q04917 1-246); assay: FP
T6 chain: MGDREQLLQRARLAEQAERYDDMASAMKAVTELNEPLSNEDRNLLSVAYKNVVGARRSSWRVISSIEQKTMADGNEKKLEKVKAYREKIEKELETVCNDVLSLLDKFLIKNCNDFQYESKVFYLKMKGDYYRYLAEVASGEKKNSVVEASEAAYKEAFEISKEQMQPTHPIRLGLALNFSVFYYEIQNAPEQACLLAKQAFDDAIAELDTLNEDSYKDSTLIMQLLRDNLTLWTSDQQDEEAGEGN

14-3-3β = molecular target: T7, 14-3-3β (human, UniProt P31946 1-246); assay: FP
T7 chain: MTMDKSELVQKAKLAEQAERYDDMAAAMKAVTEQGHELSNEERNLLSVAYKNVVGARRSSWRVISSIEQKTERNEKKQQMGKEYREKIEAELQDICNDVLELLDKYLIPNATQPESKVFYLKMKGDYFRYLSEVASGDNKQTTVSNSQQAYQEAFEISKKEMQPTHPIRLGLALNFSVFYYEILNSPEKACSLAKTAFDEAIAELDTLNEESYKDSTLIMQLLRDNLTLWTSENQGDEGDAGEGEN

14-3-3τ [7] = molecular target: T8, 14-3-3τ (human, UniProt P27348 1-245); assay: FP
T8 chain: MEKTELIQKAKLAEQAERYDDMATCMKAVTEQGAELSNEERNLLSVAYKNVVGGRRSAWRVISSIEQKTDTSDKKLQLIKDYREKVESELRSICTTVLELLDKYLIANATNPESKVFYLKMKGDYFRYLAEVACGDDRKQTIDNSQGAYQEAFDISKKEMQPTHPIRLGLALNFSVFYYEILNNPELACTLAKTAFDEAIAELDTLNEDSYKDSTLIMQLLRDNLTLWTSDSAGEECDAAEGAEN

14-3-3γ [8] = molecular target: T9, 14-3-3γ (human, UniProt P61981 1-247); assay: fluorescence polarisation; 10 nM fluorescein-labelled peptide titrated with 14-3-3 protein (1 nM to 120 µM in the results, 100 µM to 1 nM in the methods); 20 mM MOPS, 150 mM NaCl, 0.005% (v/v) CHAPS pH 7.0; room temperature; monophasic fit; details: both partners purified
T9 construct: 14-3-3 protein gamma, human; open reading frame inserted into pMAL2Cx; also called 14-3-3 gamma
T9 sequence (looked up): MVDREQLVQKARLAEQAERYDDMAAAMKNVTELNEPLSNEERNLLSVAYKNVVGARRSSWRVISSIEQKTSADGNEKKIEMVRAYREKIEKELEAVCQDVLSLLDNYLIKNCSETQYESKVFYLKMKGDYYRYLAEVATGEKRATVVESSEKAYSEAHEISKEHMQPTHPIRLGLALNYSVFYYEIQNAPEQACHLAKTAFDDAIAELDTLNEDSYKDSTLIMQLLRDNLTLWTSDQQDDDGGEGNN

14-3-3η [9] = molecular target: T10, 14-3-3η (human, UniProt Q04917 1-246); assay: as above; details: both partners purified
T10 construct: 14-3-3 protein eta, human; open reading frame inserted into pMAL2Cx; also called 14-3-3 eta
T10 sequence (looked up): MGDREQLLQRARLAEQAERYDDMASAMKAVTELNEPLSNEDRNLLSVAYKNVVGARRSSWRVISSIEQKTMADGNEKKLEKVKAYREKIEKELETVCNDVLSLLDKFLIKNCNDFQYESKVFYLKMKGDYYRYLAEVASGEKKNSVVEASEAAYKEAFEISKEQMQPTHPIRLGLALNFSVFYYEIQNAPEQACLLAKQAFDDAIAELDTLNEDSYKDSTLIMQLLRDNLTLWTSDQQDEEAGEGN

14-3-3τ [10] = molecular target: T11, 14-3-3τ (human, UniProt P27348 1-245); assay: as above; details: both partners purified
T11 construct: 14-3-3 protein tau (theta), human; open reading frame inserted into pMAL2Cx; also called 14-3-3 tau
T11 sequence (looked up): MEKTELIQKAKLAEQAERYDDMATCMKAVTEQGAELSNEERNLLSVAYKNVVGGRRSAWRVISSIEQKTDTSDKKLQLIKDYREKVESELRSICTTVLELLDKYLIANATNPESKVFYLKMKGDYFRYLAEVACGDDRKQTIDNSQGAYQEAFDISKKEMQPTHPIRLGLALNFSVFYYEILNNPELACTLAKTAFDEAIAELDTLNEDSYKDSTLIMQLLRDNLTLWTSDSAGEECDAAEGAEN

14-3-3ζ [11] = molecular target: T12, 14-3-3ζ (human, UniProt P63104 1-245); assay: as above; details: both partners purified
T12 construct: 14-3-3 protein zeta, human; open reading frame inserted into pMAL2Cx; also called 14-3-3 zeta
T12 sequence (looked up): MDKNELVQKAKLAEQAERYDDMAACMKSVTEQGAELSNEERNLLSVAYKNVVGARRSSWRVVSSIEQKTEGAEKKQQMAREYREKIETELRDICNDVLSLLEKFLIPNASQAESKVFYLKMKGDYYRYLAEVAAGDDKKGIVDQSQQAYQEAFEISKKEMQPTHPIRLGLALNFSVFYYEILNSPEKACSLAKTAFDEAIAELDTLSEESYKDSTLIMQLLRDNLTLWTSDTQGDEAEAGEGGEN

| Binder | Kd [1] [µM] | Kd [2] [µM] | fold reduction of affinity against the TASK-3 pS373 peptide with V374 [3] [fold] | Kd (14-3-3ε) [µM] | Kd (14-3-3σ) [µM] | Kd (14-3-3ζ [4]) [µM] | Kd (14-3-3γ [5]) [µM] | Kd (14-3-3η [6]) [µM] | Kd (14-3-3β) [µM] | Kd (14-3-3τ [7]) [µM] | binding result (14-3-3γ [8]) | binding result (14-3-3η [9]) | binding result (14-3-3τ [10]) | binding result (14-3-3ζ [11]) |
| --- | --- | --- | --- | --- | --- | --- | --- | --- | --- | --- | --- | --- | --- | --- |
| 14-3-3ε (natural protein, human, UniProt P62258 1-255, looked up, 14-3-3 protein epsilon, human; open reading frame inserted into pMAL2Cx; also called 14-3-3 epsilon) MDDREDLVYQAKLAEQAERYDEMVESMKKVAGMDVELTVEERNLLSVAYKNVIGARRASWRIISSIEQKEENKGGEDKLKMIREYRQMVETELKLICCDILDVLDKHLIPAANTGESKVFYYKMKGDYHRYLAEFATGNDRKEAAENSLVAYKAASDIAMTELPPTHPIRLGLALNFSVFYYEILNSPDRACRLAKAAFDDAIAELDTLSEESYKDSTLIMQLLRDNLTLWTSDMQGDGEEQNKEALQDVEDENQ | 0.15 | 100 | 23 |  |  |  |  |  |  |  |  |  |  |  |
| SLSTFRGLMKRRS[pS]V (also: fluorescein label, position not given here) [TASK-1 pS393 C-terminal fluorescent peptide (last 15 amino acids)] |  |  |  | 29 | 36 | 23 | 9.8 | 9.2 |  |  |  |  |  |  |
| SFTDHQRLMKRRK[pS]V (also: fluorescein label, position not given here) [TASK-3 pS373 C-terminal fluorescent peptide (last 15 amino acids)] |  |  |  | 0.8 |  | 1 | 0.15 |  | 0.37 | 0.22 |  |  |  |  |
| B1 |  |  |  | 18 |  | 3.3 | 1.1 | 1.6 | 1.2 | 2.4 | binds | binds | binds | binds |

Reference: paper PMC4760375, “A dual phosphorylation switch controls 14-3-3-dependent cell surface expression of TASK-1” (Journal of Cell Science, 2016)
